The source of these data is paper PMC4889325.

The target of this experiment is human haemoglobin (human). Kind of experiment: ITC; MicroCal iTC200; 250 μM TcHpHbR titrated into 18 μM Hb, 20 injections of 2 μl; 20 mM HEPES pH 7.5, 150 mM NaCl, 25°C. In general terms: Isothermal titration calorimetry measures the heat released or taken up as one component is titrated into another.

As usually defined, the Kd is the concentration at which binding is half-saturated. Turning to “T. congolense haptoglobin-haemoglobin receptor (TcHpHbR), recombinant, as used in gel filtration and ITC”, the dissociation constant (Kd) was 3 nM and the stoichiometry N (receptors per Hb tetramer) is 2.
